T1: human FcγRIIaH extracellular domain, His-tagged (human, UniProt P12318 34-217)
T1 construct: also called human FcgRIIaH; FcγRIIa (type H); not shown: His-tag added to the C-terminus
T1 sequence: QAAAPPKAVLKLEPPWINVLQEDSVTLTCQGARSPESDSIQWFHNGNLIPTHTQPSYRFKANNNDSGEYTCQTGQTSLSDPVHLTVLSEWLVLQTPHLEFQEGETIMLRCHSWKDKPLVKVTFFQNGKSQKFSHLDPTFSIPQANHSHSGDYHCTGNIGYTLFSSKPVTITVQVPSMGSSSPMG

T2: human FcγRIIb extracellular domain, His-tagged (human, UniProt P31994 43-217)
T2 construct: also called human FcgRIIb; not shown: His-tag added to the C-terminus
T2 sequence: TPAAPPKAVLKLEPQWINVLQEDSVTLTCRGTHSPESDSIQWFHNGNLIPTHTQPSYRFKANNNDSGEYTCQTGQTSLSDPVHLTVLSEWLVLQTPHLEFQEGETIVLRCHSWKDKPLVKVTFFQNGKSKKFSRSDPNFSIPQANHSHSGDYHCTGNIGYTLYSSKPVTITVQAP

T3: cynomolgus monkey FcγRIIa2 extracellular domain with C-terminal His-tag (cynomolgus monkey)
T3 construct: Expressed in FreeStyle 293 cells and purified; also called cyno FcγRIIa2; cynoFcgRIIa2; not shown: C-terminal His-tag
T3 chain: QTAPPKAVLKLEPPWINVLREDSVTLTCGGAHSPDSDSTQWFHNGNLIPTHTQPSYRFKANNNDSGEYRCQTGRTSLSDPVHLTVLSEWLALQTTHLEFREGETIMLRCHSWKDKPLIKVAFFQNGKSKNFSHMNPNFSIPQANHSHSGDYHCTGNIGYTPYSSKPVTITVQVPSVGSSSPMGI

T4: cynomolgus monkey FcγRIIa3 extracellular domain with C-terminal His-tag (cynomolgus monkey)
T4 construct: Expressed in FreeStyle 293 cells and purified; also called cyno FcγRIIa3; cynoFcgRIIa3; not shown: C-terminal His-tag
T4 chain: T3 chain with K127I, N130K, H133P, Q142R

T5: cynomolgus monkey FcγRIIb extracellular domain with C-terminal His-tag (cynomolgus monkey)
T5 construct: Expressed in FreeStyle 293 cells and purified; also called cyno FcγRIIb; cynoFcγRIIb; not shown: C-terminal His-tag
T5 chain: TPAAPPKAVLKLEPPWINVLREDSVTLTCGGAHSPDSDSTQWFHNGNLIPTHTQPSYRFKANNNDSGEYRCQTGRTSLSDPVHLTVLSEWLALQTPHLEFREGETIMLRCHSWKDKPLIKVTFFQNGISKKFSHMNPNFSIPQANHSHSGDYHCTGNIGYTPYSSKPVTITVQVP

T6: human FcγRIIaH extracellular domain with C-terminal His-tag (human, UniProt P12318 34-217)
T6 construct: Expressed in FreeStyle 293 cells and purified; also called human FcγRIIa (type H); FcgRIIaH; not shown: C-terminal His-tag
T6 sequence: T1 sequence

B1: MS1032LO06-SG1 (M103205H795-SG1/M103202L889-SK1) (antibody, human IgG1, kappa)
heavy: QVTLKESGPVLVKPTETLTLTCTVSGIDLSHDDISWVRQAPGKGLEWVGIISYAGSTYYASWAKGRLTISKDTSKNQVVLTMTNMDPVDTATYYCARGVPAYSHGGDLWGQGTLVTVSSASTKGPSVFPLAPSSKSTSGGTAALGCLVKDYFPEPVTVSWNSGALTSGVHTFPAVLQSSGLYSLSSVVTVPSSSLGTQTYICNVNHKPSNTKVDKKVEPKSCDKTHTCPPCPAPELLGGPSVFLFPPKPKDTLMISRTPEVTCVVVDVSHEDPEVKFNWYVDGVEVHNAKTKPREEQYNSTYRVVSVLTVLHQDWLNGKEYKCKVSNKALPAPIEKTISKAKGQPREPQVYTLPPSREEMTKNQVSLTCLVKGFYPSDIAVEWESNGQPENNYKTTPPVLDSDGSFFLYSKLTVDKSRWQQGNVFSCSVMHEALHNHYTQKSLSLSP
light: DIVMTQSPATLSLSPGERATLSCTSSQSVYHANWLSWFQQKPGQPPKLLIYWASTLAYGVPSRFSGSGSGTDFTLTISSLQPEDAATYYCAGGYGGGRYAFGQGTKVEIKRTVAAPSVFIFPPSDEQLKSGTASVVCLLNNFYPREAKVQWKVDNALQSGNSQESVTEQDSKDSTYSLSSTLTLSKADYEKHKVYACEVTHQGLSSPVTKSFNRGEC
notes: Anti-latent myostatin antibody; Parent of the Fc variants; copies: 2 + 2
B2: M103205H795-MY263/M103202L889-SK1 (antibody, human IgG1, kappa)
heavy: QVTLKESGPVLVKPTETLTLTCTVSGIDLSHDDISWVRQAPGKGLEWVGIISYAGSTYYASWAKGRLTISKDTSKNQVVLTMTNMDPVDTATYYCARGVPAYSHGGDLWGQGTLVTVSSASTKGPSVFPLAPSSKSTSGGTAALGCLVKDYFPEPVTVSWNSGALTSGVHTFPAVLQSSGLYSLSSVVTVPSSSLGTQTYICNVNHKPSNTKVDKKVEPKSCDKTHTCPPCPAPELLQGPSVFLFPPKPKDTLMISRTPEVTCVVVDVSDEDPEVKFNWYVDGVEVHNAKTKPREEQYNSTYRVVSVLTVLHQDWLNGKEYKCKVSNKALPKPIEKTISKAKGQPREPQVYTLPPSREEMTKNQVSLTCLVKGFYPSDIAVEWESNGQPENNYKTTPPVLDSDGSFFLYSKLTVDKSRWQQGNVFSCSVMHEALHNHYTQKSLSLSP
light: B1 light
notes: copies: 2 + 2
B3: M103205H795-MY262/M103202L889-SK1 (antibody, human IgG1, kappa)
heavy: B2 heavy with Q238V
light: B1 light
notes: copies: 2 + 2
B4: M103205H795-MY261/M103202L889-SK1 (antibody, human IgG1, kappa)
heavy: B2 heavy with Q238H
light: B1 light
notes: copies: 2 + 2
B5: M103205H795-MY201/M103202L889-SK1 (antibody, human IgG1, kappa)
heavy: B2 heavy with Q238N
light: B1 light
notes: Fc variant G236N/H268D/A330K (EU numbering) of SG1; also called MS1032LO06-MY201; copies: 2 + 2
B6: M103205H795-MY260/M103202L889-SK1 (antibody, human IgG1, kappa)
heavy: B2 heavy with Q238M
light: B1 light
notes: copies: 2 + 2
B7: MS_M103205H795-SG1/M103202L889-SK1 (antibody, human IgG1, kappa)
heavy: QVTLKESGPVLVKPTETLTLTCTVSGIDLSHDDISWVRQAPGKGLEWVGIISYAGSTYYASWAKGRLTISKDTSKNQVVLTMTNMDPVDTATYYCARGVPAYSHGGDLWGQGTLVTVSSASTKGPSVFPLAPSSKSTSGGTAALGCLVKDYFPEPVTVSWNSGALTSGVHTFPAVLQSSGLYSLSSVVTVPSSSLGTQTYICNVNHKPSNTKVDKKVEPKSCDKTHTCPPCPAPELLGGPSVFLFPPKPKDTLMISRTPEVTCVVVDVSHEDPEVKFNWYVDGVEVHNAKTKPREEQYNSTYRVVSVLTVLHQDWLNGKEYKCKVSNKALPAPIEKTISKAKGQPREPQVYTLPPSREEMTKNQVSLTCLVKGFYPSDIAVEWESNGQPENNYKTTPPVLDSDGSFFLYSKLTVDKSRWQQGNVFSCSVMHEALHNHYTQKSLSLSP
light: B1 light
notes: Anti-latent myostatin IgG; also called MS1032LO06-SG1
B8: M103205H795-MY052 / M103202L889-SK1 (antibody, human IgG1, kappa)
heavy: B2 heavy with Q238N, D270E, K332A, P398M
light: B1 light
notes: Fc variant of M103205H795-SG1, expressed with M103202L889-SK1 as light chain; parent of the position 396 variants
B9: M103205H795-MY170 / M103202L889-SK1 (antibody, human IgG1, kappa)
heavy: B2 heavy with Q238N, D270E, K332A, P398E
light: B1 light
notes: Position 396 variant derived from MY052, expressed with M103202L889-SK1 as light chain
B10: M103205H795-MY169 / M103202L889-SK1 (antibody, human IgG1, kappa)
heavy: B2 heavy with Q238N, D270E, K332A, P398D
light: B1 light
notes: as for B9
B11: M103205H795-MY171 / M103202L889-SK1 (antibody, human IgG1, kappa)
heavy: B2 heavy with Q238N, D270E, K332A, P398F
light: B1 light
notes: as for B9
B12: M103205H795-MY168 / M103202L889-SK1 (antibody, human IgG1, kappa)
heavy: B2 heavy with Q238N, D270E, K332A, P398A
light: B1 light
notes: as for B9

Substitutions are numbered along the chain they refer to. Numbers in names are those of the source.

The target in one experiment is T1, human FcγRIIaH extracellular domain, …. Description: SPR; KD of SG1 divided by KD of the variant.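 Note: relative to parent M103205H795-SG1 carrying the SG1 human heavy chain constant region.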 On the procedure:
(§1) Regarding such interactions, KD values were calculated using the following 1:1 binding model described in BIACORE® T100 Software Handbook BR1006-48 Edition AE.
(§2) The behavior of interacting molecules according to the 1:1 binding model on BIACORE® can be described by Equation 1: Req=C·R max/(KD+C)+RI, wherein, Req is a plot of steady-state binding levels to analyte concentration. C is concentration, RI is bulk refractive index contribution in the sample, and Rmax is analyte binding capacity of the surface. When this equation is rearranged, KD can be expressed as Equation 2: KD=C·Rmax/(Req−RI)−C. KD can be calculated by substituting the values of Rmax, RI, and C into Equation 1 or Equation 2. From the current measurement conditions, RI=0, C=2 μmol/L can be used.
(§3) The resultant variants were expressed using M103202L889-SK1 as light chain and their affinity to human and cynoFcγRs were evaluated (Table 21).
Background: In SPR one partner is held on a chip, and binding of the other changes the refractive index at the surface.
In the case of B1, the “KD fold (SG1 = 1)” value was found to be 1 fold.
Same read-out and setting: the result for B2 reads 2.2 fold.
Still for that read-out and setting: next, B3: 4.9 fold.
On the same count and under the same terms, the result for B4 reads 2.9 fold; that for B5, 0.8 fold.
For B6, the “KD fold (SG1 = 1)” value worked out at 0.8 fold.

In another experiment the target is T2, human FcγRIIb extracellular domain, …. In words: SPR; KD of SG1 divided by KD of the variant.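 Note: relative to parent M103205H795-SG1 carrying the SG1 human heavy chain constant region.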 Here is the method:
as §1, §2, §3
As to B1, the “KD fold (SG1 = 1)” value amounted to 1 fold.
On the same count and under the same terms, next, B2: 1.3 fold; B3: 0.8 fold.
Same read-out and setting: the result for B4 reads 0.9 fold.
Same read-out and setting: the result for B5 reads 4.2 fold; that for B6, 0.8 fold.

The target in another experiment is T7, human FcγRIIIaV extracellular domain, His-tagged (human, UniProt P08637 17-208).
T7 construct: also called human FcgRIIIaV; not shown: His-tag added to the C-terminus
T7 sequence (P08637 17-208 F176V): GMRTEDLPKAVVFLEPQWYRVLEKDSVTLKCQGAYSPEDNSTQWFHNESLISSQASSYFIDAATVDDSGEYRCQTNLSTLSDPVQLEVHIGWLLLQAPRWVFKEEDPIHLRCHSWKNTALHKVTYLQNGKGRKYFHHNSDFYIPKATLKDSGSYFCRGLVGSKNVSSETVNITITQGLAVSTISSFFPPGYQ
In words: SPR; KD of SG1 divided by KD of the variant.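 Note: relative to parent M103205H795-SG1 carrying the SG1 human heavy chain constant region.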 On the procedure: as §1, §2, §3
With B1, the “KD fold (SG1 = 1)” value came to 1 fold.
Turning to B2, the “KD fold (SG1 = 1)” value is 0.35 fold.
On the same count and under the same terms, the result for B3 reads 0.16 fold.
The same measure, in the same setting: next, B4: 0.07 fold; B5: 0.03 fold.
On the same count and under the same terms, next, B6: 0.27 fold.

The target of another experiment is T3, cynomolgus monkey FcγRIIa2 …. In words: SPR (Biacore), antibody captured on chip, FcgR extracellular domain as analyte, 25 C. On the procedure: (§4) The kinetic analysis of interactions between these antibodies and FcγR was carried out using BIACORE® T200 or BIACORE® 4000 (GE Healthcare). HBS-EP+ (GE Healthcare) was used as the running buffer, and the measurement temperature was set to 25° C. A chip produced by immobilizing Protein A. Protein A/G or mouse anti-human IgG kappa light chain (BD Biosciences) onto a Series S Sensor Chip CM4 or CM5 (GE Healthcare) by the amine-coupling method was used. […] After the measurement, the antibody captured on the chip was washed off by allowing reaction with 10 mM glycine-HCl, pH1.5 and 25 mM NaOH so that the chip was regenerated and used repeatedly. The sensorgrams obtained as measurement results were analyzed by the 1:1 Langmuir binding model using the BIACORE® Evaluation Software to calculate the binding rate constant ka (L/mol/s) and dissociation rate constant kd (l/s), and the dissociation constant KD (mol/L) was calculated from these values. […] Regarding such interactions, KD values were calculated using the following 1:1 binding model described in BIACORE® T100 Software Handbook BR1006-48 Edition AE.
(§5) The resultant variants were expressed using M103202L889-SK1 as light chain and their affinity to human and cynoFcγRs were evaluated (Table 20).
As a reminder, the Kd is a measure of binding affinity in units of concentration. As to B7, binding was put at a Kd of 5.1 µM.
On the same count and under the same terms, next, B8: 1.5 µM.
Same read-out and setting: next, B9: 2.4 µM; B10: 2.3 µM; B11: 23 µM.
For B12, the Kd worked out at 2.5 µM.

The next experiment deals with T4, cynomolgus monkey FcγRIIa3 …. The experiment is described as above. On the procedure:
as §4, §5
Molecule B7 came in with a Kd of 17 µM.
B8 showed a Kd of 3.9 µM.
On the same count and under the same terms, next, B9: 12 µM; B10: 9.9 µM.
The same measure, in the same setting: the result for B11 reads 92 µM; that for B12, 10 µM.

Another experiment addresses T5, cynomolgus monkey FcγRIIb extracellular …. Described as above. On the procedure: as §4, §5
In turn, B7 had a Kd of 1.8 µM.
Still for that read-out and setting: the result for B8 reads 0.46 µM.
Same read-out and setting: the result for B9 reads 1.2 µM; that for B10, 1 µM.
Same read-out and setting: next, B11: 0.98 µM; B12: 1.2 µM.

The target in a further experiment is T6, human FcγRIIaH extracellular domain …. Described as above. On the procedure: as §4, §5
The molecule B7 returned a Kd of 0.69 µM.
The same measure, in the same setting: the result for B8 reads 0.83 µM; that for B9, 1.7 µM.
Same read-out and setting: the result for B10 reads 1.2 µM; that for B11, 1.2 µM.
Same read-out and setting: next, B12: 1.6 µM.

Another experiment deals with T8, human FcγRIIIaV extracellular domain with C-terminal His-tag (human, UniProt P08637 17-208).
T8 construct: Expressed in FreeStyle 293 cells and purified; also called FcgRIIIaV; not shown: C-terminal His-tag
T8 sequence (P08637 17-208 F176V): as above
The experiment is described as above. On the procedure: as §4, §5
Regarding B7, the Kd was found to be 0.81 µM.
B8 displayed an equilibrium dissociation constant (Kd) of 1.5 µM.
Same read-out and setting: the result for B9 reads 6.3 µM; that for B10, 6.2 µM.
The same measure, in the same setting: next, B11: 5.9 µM; B12: 8.1 µM.

Source of the values: patent US20200317768A1 (published 2020).
